Results as given in article PMC12416549 (2024).
Numbering of substitutions follows the chain as printed. Numbers in names are those of the source.

T1: TNFR1 (Homo sapiens, UniProt P19438)
T1 chain: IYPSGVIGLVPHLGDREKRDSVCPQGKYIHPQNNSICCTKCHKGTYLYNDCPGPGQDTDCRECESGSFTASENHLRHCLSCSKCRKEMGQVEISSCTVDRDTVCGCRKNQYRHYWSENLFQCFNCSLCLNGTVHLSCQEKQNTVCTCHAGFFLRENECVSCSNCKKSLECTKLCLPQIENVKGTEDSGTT

B1: E12S (designed binder)
chain: SMEEEVEKAAKSYEKKKKEAIEKHLEKLKAKDKEAAERFLKELEEAAKEYAKDEAKTMSEEEAKRRAKKYKEKVLLSELSEEEQKEIKEAEEKLVRTILKYVEEAAK
B2: K48H (designed binder)
chain: B1 chain with S12E, K48H
B3: E72N (designed binder)
chain: B1 chain with S12E, E72N
B4: T97R (designed binder)
chain: B1 chain with S12E, T97R
B5: K41T (designed binder)
chain: B1 chain with S12E, K41T
B6: S1T (designed binder)
chain: B1 chain with S1T, S12E
B7: E49P (designed binder)
chain: B1 chain with S12E, E49P
B8: K69S (designed binder)
chain: B1 chain with S12E, K69S
B9: V102R (designed binder)
chain: B1 chain with S12E, V102R
B10: K8Q (designed binder)
chain: B1 chain with K8Q, S12E
B11: I21G (designed binder)
chain: B1 chain with S12E, I21G
B12: K85P (designed binder)
chain: B1 chain with S12E, K85P
B13: K73Q (designed binder)
chain: B1 chain with S12E, K73Q
B14: E3V (designed binder)
chain: B1 chain with E3V, S12E
B15: K100C (designed binder)
chain: B1 chain with S12E, K100C
B16: T97F (designed binder)
chain: B1 chain with S12E, T97F
B17: D53R (designed binder)
chain: B1 chain with S12E, D53R
B18: A10H (designed binder)
chain: B1 chain with A10H, S12E
B19: A36C (designed binder)
chain: B1 chain with S12E, A36C
B20: T97M (designed binder)
chain: B1 chain with S12E, T97M
B21: V95P (designed binder)
chain: B1 chain with S12E, V95P
B22: A35L (designed binder)
chain: B1 chain with S12E, A35L
B23: E103L (designed binder)
chain: B1 chain with S12E, E103L
B24: K93E (designed binder)
chain: B1 chain with S12E, K93E
B25: E60R (designed binder)
chain: B1 chain with S12E, E60R
B26: S80M (designed binder)
chain: B1 chain with S12E, S80M
B27: V6A (designed binder)
chain: B1 chain with V6A, S12E
B28: R65C (designed binder)
chain: B1 chain with S12E, R65C
B29: T57W (designed binder)
chain: B1 chain with S12E, T57W
B30: D32K (designed binder)
chain: B1 chain with S12E, D32K
B31: K16Y (designed binder)
chain: B1 chain with S12E, K16Y
B32: E45N (designed binder)
chain: B1 chain with S12E, E45N
B33: A46G (designed binder)
chain: B1 chain with S12E, A46G
B34: E22P (designed binder)
chain: B1 chain with S12E, E22P
B35: A30V (designed binder)
chain: B1 chain with S12E, A30V
B36: L25K (designed binder)
chain: B1 chain with S12E, L25K
B37: E61A (designed binder)
chain: B1 chain with S12E, E61A
B38: L43T (designed binder)
chain: B1 chain with S12E, L43T
B39: A90N (designed binder)
chain: B1 chain with S12E, A90N
B40: E19W (designed binder)
chain: B1 chain with S12E, E19W
B41: I98Q (designed binder)
chain: B1 chain with S12E, I98Q
B42: E89T (designed binder)
chain: B1 chain with S12E, E89T
B43: R66L (designed binder)
chain: B1 chain with S12E, R66L

Molecular target: T1, TNFR1
Assay: yeast display SC50

apparent Kd (screen)	Binder
0.446 nM	B1
0.718 nM	B2
1.27 nM	B3
0.49 nM	B4
0.956 nM	B5
0.49 nM	B6
4.39 nM	B7
0.446 nM	B8
2.25 nM	B9
0.956 nM	B10
0.49 nM	B11
18.3 nM	B12
1.05 nM	B13
1.69 nM	B14
3 nM	B15
0.405 nM	B16
2.73 nM	B17
3.3 nM	B18
0.79 nM	B19
0.539 nM	B20
5.31 nM	B21
0.446 nM	B22

apparent Kd (screen)	Binder
3 nM	B23
0.956 nM	B24
1.16 nM	B25
1.16 nM	B26
0.539 nM	B27
6.43 nM	B28
0.304 nM	B29
1.05 nM	B30
0.446 nM	B31
2.48 nM	B32
0.49 nM	B33
12.5 nM	B34
0.869 nM	B35
1.4 nM	B36
1.27 nM	B37
0.49 nM	B38
0.446 nM	B39
0.539 nM	B40
0.0498 nM	B41
2.25 nM	B42
18.3 nM	B43
